# Measurements from the supplement of paper PMC7877785.
# ± gives the uncertainty stated by the source.
# Test: self-splicing fitness, log relative to wild type (ln ratio); higher = more splicing; Tetrahymena group I intron in knt gene, E. coli kanamycin selection, DiMSum; sequences stand for … in CUCUCU…GGAGGGAAAAGUUAUCAGGCAUGCACCUGGUAGCUAGUCUUUAAACCAAUAGAUUGCAUCGGUUUAAAAGGCAAGACCGUCAAAUUGCGGGAAAGGGGUCAACAGCCGUUCAGUACCAAGUCUCAGGGGAAACUUUGAGAUGGCCUUGCAAAGGGUAUGGUAAUAAGCUGACGGACAUGGUCCUAACCACGCAGCCAAGUCCUAAGUCAACAGAUCUUCUGUUGAUAUGGAUGCAGUUCACAGACUAAAUGUCGGUCGGGGAAGAUGUAUUCUUCUCAUAAGAUAUAGUCGGACCUCUCCUUAAUGGGAGCUAGCGGAUGAAGUGAUGCAACACUGGAGCCGCUGGGAACUAAUUUGUAUGCGAAAGUAUAUUGAUUAGUUUUGGAGUACUCGUGGUCG
# In short: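 Colonies from six replicate transformations of E. coli BL21(DE3) were pooled and amplicon-sequenced on an Illumina HiSeq 2500. The library placed an intron with all eight P1ex-region nucleotides randomised inside the knt kanamycin-resistance gene on pET-22b(+), and cells grew overnight at 37°C or 30°C on LB agar with or without 25 μg/mL kanamycin (plus 100 μg/mL carbenicillin, 50 μM IPTG, 0.2% rhamnose). Fitness is the DiMSum error-weighted combination of wild-type-normalised replicate fold changes, kanamycin versus none.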
Sequence,self-splicing fitness (ln) (30 °C),self-splicing fitness (ln) (37 °C)
UAAUAGCAAUAUUACGUCUA,-0.149 ± 0.084,0.263 ± 0.087
UAAUAGCAAUAUUACGUGAU,-4.15 ± 0.37,-1.61 ± 0.21
UAAUAGCAAUAUUACGUGUA,-2.19 ± 0.12,-0.918 ± 0.1
UAAUAGCAAUAUUACGUUUC,-2.95 ± 0.45,-1.35 ± 0.23
UAAUAGCAAUAUUACGUUUG,-0.989 ± 0.099,0.00265 ± 0.12
UACAAGCAAUAUUACGAACG,-0.239 ± 0.065,-0.0708 ± 0.08
UACAAGCAAUAUUACGACCA,-0.29 ± 0.12,-0.203 ± 0.16
UACAAGCAAUAUUACGACUU,-1.19 ± 0.081,-0.692 ± 0.097
UACAAGCAAUAUUACGAGCC,-2.24 ± 0.48,
UACAAGCAAUAUUACGAGGU,-4.06 ± 0.28,-1.94 ± 0.28
UACAAGCAAUAUUACGAUCA,-0.336 ± 0.079,0.387 ± 0.11
UACAAGCAAUAUUACGAUGC,-3.69 ± 0.28,-3.13 ± 0.29
UACAAGCAAUAUUACGCACA,-1.23 ± 0.11,-0.242 ± 0.11
UACAAGCAAUAUUACGCAUU,-3.38 ± 0.19,-1.63 ± 0.16
UACAAGCAAUAUUACGCGAU,-3.74 ± 0.32,-1.3 ± 0.2
UACAAGCAAUAUUACGCGCU,-1.39 ± 0.12,-0.322 ± 0.11
UACAAGCAAUAUUACGCGUU,-2.57 ± 0.096,-1.71 ± 0.093
UACAAGCAAUAUUACGCUAU,-3.38 ± 0.13,-1.83 ± 0.11
UACAAGCAAUAUUACGGAGA,-2.4 ± 0.17,-3.27 ± 0.23
UACAAGCAAUAUUACGGAGG,-3.94 ± 0.22,-2.03 ± 0.16
UACAAGCAAUAUUACGGAUG,-1.16 ± 0.078,-0.694 ± 0.11
UACAAGCAAUAUUACGUAAC,-4.15 ± 0.16,-2.28 ± 0.15
UACAAGCAAUAUUACGUGGA,-2.82 ± 0.15,-2.27 ± 0.11
UACAAGCAAUAUUACGUUAU,-3.39 ± 0.19,-1.81 ± 0.1

Sequence,self-splicing fitness (ln) (30 °C),self-splicing fitness (ln) (37 °C)
UACAAGCAAUAUUACGUUUG,-3.72 ± 0.13,-2.57 ± 0.15
UACCAGCAAUAUUACGAGAA,-1.72 ± 0.14,-1.22 ± 0.13
UACCAGCAAUAUUACGAGGA,-1.63 ± 0.14,-1.24 ± 0.12
UACCAGCAAUAUUACGAUAU,-2.78 ± 0.12,-1.32 ± 0.12
UACCAGCAAUAUUACGAUUA,-0.0875 ± 0.065,0.118 ± 0.075
UACCAGCAAUAUUACGAUUC,-2.36 ± 0.21,-1.55 ± 0.18
UACCAGCAAUAUUACGAUUG,-2.62 ± 0.084,-1.35 ± 0.079
UACCAGCAAUAUUACGCAGU,-4.06 ± 0.27,-2.62 ± 0.18
UACCAGCAAUAUUACGCGGC,-3.78 ± 0.13,-3.27 ± 0.18
UACCAGCAAUAUUACGCUAA,-1.14 ± 0.081,-0.492 ± 0.092
UACCAGCAAUAUUACGCUAC,-3.17 ± 0.2,-1.83 ± 0.18
UACCAGCAAUAUUACGCUCA,0.178 ± 0.073,0.378 ± 0.081
UACCAGCAAUAUUACGCUUA,-0.566 ± 0.056,-0.478 ± 0.07
UACCAGCAAUAUUACGCUUC,-3.17 ± 0.23,-2.3 ± 0.24
UACCAGCAAUAUUACGGAAA,-0.915 ± 0.073,-0.747 ± 0.077
UACCAGCAAUAUUACGGAGG,-2.34 ± 0.12,-0.914 ± 0.12
UACCAGCAAUAUUACGGCAA,-0.203 ± 0.067,0.462 ± 0.094
UACCAGCAAUAUUACGGCAC,-2.09 ± 0.066,-1.05 ± 0.067
UACCAGCAAUAUUACGGGAG,-1.64 ± 0.061,-1.01 ± 0.071
UACCAGCAAUAUUACGGUAA,-1.77 ± 0.076,-0.857 ± 0.074
UACCAGCAAUAUUACGGUAC,-3.72 ± 0.22,-2.04 ± 0.16
UACCAGCAAUAUUACGGUGG,-3.17 ± 0.11,-1.87 ± 0.087
UACCAGCAAUAUUACGUAGU,-2.96 ± 0.099,-1.65 ± 0.1
UACCAGCAAUAUUACGUAUU,-2.16 ± 0.1,-2.6 ± 0.18

Sequence,self-splicing fitness (ln) (30 °C),self-splicing fitness (ln) (37 °C)
UACCAGCAAUAUUACGUCGC,-2.97 ± 0.17,-1.88 ± 0.2
UACCAGCAAUAUUACGUGCU,-4.3 ± 0.19,-2.93 ± 0.17
UACCAGCAAUAUUACGUUGA,-1.61 ± 0.049,-0.796 ± 0.062
UACCAGCAAUAUUACGUUGG,-3.21 ± 0.12,-2.85 ± 0.14
UACGAGCAAUAUUACGAAAG,-2.75 ± 0.42,-1.29 ± 0.45
UACGAGCAAUAUUACGAACU,-3.46 ± 0.48,-2.4 ± 0.24
UACGAGCAAUAUUACGACGC,-3 ± 0.27,-2.09 ± 0.35
UACGAGCAAUAUUACGACUC,-2.51 ± 0.21,-2.31 ± 0.36
UACGAGCAAUAUUACGAGCA,-2.48 ± 0.16,-0.109 ± 0.12
UACGAGCAAUAUUACGAGGA,-3.51 ± 0.26,-2.48 ± 0.22
UACGAGCAAUAUUACGAUUC,-3.01 ± 0.28,-2.83 ± 0.3
UACGAGCAAUAUUACGCCAG,-3.79 ± 0.3,-2.88 ± 0.3
UACGAGCAAUAUUACGCCCA,-2.24 ± 0.27,-1.02 ± 0.29
UACGAGCAAUAUUACGCCGU,-2.69 ± 0.46,-2.21 ± 0.29
UACGAGCAAUAUUACGCGCU,,-3.38 ± 0.31
UACGAGCAAUAUUACGCUCU,-1.85 ± 0.21,
UACGAGCAAUAUUACGGGAU,-2.49 ± 0.14,-2.74 ± 0.27
UACGAGCAAUAUUACGUAUC,-2.79 ± 0.16,-2.99 ± 0.27
UACGAGCAAUAUUACGUCUC,-3.24 ± 0.29,-2.56 ± 0.4
UACGAGCAAUAUUACGUCUU,-3.95 ± 0.33,-3.41 ± 0.24
UACUAGCAAUAUUACGACAA,-0.443 ± 0.12,-0.256 ± 0.11
UACUAGCAAUAUUACGACAU,-1.645 ± 0.014,-0.715 ± 0.033
UACUAGCAAUAUUACGAGAG,-2.94 ± 0.13,-2.43 ± 0.18
UACUAGCAAUAUUACGAGGA,-3.18 ± 0.2,-1.54 ± 0.13

Sequence,self-splicing fitness (ln) (30 °C),self-splicing fitness (ln) (37 °C)
UACUAGCAAUAUUACGCCAG,-0.0426 ± 0.17,-1.03 ± 0.29
UACUAGCAAUAUUACGCCCU,-0.435 ± 0.14,-0.784 ± 0.15
UACUAGCAAUAUUACGCGAA,-1.97 ± 0.2,-1.18 ± 0.14
UACUAGCAAUAUUACGCGCU,-3.19 ± 0.18,-1.8 ± 0.15
UACUAGCAAUAUUACGCUGC,,-3.01 ± 0.43
UACUAGCAAUAUUACGCUGU,-4.54 ± 0.28,-3.27 ± 0.33
UACUAGCAAUAUUACGGAAG,-3.07 ± 0.26,-2.91 ± 0.43
UACUAGCAAUAUUACGGACA,-0.57 ± 0.13,-0.47 ± 0.16
UACUAGCAAUAUUACGGAGC,-1.89 ± 0.25,-2.56 ± 0.3
UACUAGCAAUAUUACGGCCA,-0.179 ± 0.15,0.376 ± 0.16
UACUAGCAAUAUUACGGGAC,-3.54 ± 0.17,-2.72 ± 0.16
UACUAGCAAUAUUACGGGGU,-4.05 ± 0.19,-2.71 ± 0.2
UACUAGCAAUAUUACGGUAG,-1.92 ± 0.11,-1.09 ± 0.12
UACUAGCAAUAUUACGUACU,-2.51 ± 0.19,-0.347 ± 0.13
UACUAGCAAUAUUACGUAGC,-2.83 ± 0.17,-2.19 ± 0.27
UACUAGCAAUAUUACGUCAA,-1.32 ± 0.21,-1.25 ± 0.17
UACUAGCAAUAUUACGUCGG,-2.29 ± 0.15,-2.18 ± 0.18
UACUAGCAAUAUUACGUCUA,-0.655 ± 0.12,-0.565 ± 0.11
UACUAGCAAUAUUACGUGAU,-3.07 ± 0.11,-1.17 ± 0.12
UACUAGCAAUAUUACGUGUG,-1.37 ± 0.067,-0.828 ± 0.072
UACUAGCAAUAUUACGUUUU,-3.49 ± 0.19,-1.82 ± 0.15
UAGAAGCAAUAUUACGAAAA,-2.69 ± 0.2,-2.02 ± 0.17
UAGAAGCAAUAUUACGAACU,-1.79 ± 0.14,0.0205 ± 0.13
UAGAAGCAAUAUUACGAAGA,-1.77 ± 0.18,-0.969 ± 0.17
